Assays:
[1] = target: T1, recombinant ECTV CrmD (cytokine response modifier D), C-terminally tagged with V5 and 6xHis (ectromelia virus (ECTV)); test: SPR
[2] = target: T1, recombinant ECTV CrmD (cytokine …); test: SPR; remark: listed apart in the source

B1: mouse Ccl27 (ligand)
chain: LPLPSSTSCCTQLYRQPLPSRLLRRIVHMELQEADGDCHLQAVVLHLARRSVCVHPQNRSLARWLERQGKRLQGTVPSLNLVLQKKMYSHPQQQN
Which results are given for B1?
koff [1]: 0.00372 s⁻¹; Kd [2]: 5.41 nM

Source: PMC5934441 (2018)
